Each substance was assayed against Wnt proteins (assay: cell-based or functional assay).

percent of injection sites with correct anterior turns of post-crossing commissural axons (open-book explant, collagen gel) [%] | Substance
11 | Mouse sFRP1 (secreted Frizzled-related protein 1) (from UniProt Q8C4U3 32-314)
25 | Mouse sFRP2 (secreted Frizzled-related protein 2), Myc epitope tagged (from UniProt P97299 25-295)
25 | Mouse sFRP3 (secreted Frizzled-related protein 3), Myc epitope tagged (from UniProt P97401 33-323)
